# Earlier results as cited in paper PMC10746543, “Design principles for cyclin K molecular glue degraders” (Nature Chemical Biology, 2023).
# Biological target: CDK12-cyclin K (Homo sapiens) (UniProt Q9NYV4)
# Sequence (Q9NYV4 whole entry, chain 1 of 2): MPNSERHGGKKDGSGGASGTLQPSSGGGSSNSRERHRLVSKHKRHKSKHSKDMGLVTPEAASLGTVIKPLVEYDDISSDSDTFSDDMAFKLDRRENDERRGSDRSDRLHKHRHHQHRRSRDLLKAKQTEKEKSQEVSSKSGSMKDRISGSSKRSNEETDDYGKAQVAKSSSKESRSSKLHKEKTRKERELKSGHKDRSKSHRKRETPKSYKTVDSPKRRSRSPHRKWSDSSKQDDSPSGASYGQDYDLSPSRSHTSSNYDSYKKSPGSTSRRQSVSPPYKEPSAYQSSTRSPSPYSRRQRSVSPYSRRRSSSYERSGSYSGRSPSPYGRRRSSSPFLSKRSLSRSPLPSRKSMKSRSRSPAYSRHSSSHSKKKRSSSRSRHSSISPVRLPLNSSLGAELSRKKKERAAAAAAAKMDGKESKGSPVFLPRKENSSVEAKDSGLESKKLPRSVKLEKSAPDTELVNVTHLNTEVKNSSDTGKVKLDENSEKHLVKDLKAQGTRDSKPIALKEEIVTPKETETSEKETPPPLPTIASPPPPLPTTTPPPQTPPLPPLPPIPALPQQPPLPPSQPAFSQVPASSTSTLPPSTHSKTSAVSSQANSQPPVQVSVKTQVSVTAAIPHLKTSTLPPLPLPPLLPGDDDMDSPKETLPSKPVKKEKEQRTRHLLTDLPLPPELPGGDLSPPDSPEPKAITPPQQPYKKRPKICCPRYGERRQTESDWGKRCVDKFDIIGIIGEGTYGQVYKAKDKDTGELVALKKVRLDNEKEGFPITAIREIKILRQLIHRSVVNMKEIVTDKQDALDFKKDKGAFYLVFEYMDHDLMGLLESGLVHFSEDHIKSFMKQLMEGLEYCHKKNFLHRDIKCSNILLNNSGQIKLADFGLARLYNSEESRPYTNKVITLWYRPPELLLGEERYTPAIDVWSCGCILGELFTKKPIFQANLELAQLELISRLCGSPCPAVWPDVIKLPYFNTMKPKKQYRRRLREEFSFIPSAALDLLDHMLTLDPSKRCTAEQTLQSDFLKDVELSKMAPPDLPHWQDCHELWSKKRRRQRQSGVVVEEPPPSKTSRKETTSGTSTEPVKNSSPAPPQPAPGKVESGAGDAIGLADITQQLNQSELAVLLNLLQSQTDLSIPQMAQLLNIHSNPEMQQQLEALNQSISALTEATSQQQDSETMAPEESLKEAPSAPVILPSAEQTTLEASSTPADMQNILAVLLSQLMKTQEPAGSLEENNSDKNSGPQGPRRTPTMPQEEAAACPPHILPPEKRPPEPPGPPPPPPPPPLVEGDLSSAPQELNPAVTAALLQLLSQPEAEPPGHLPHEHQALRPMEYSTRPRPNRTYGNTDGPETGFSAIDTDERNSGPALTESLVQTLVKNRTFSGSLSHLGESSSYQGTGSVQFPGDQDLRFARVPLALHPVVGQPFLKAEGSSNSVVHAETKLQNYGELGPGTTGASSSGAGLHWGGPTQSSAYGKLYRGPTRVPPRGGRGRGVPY
# Sequence (O75909 whole entry, chain 2 of 2, further chain): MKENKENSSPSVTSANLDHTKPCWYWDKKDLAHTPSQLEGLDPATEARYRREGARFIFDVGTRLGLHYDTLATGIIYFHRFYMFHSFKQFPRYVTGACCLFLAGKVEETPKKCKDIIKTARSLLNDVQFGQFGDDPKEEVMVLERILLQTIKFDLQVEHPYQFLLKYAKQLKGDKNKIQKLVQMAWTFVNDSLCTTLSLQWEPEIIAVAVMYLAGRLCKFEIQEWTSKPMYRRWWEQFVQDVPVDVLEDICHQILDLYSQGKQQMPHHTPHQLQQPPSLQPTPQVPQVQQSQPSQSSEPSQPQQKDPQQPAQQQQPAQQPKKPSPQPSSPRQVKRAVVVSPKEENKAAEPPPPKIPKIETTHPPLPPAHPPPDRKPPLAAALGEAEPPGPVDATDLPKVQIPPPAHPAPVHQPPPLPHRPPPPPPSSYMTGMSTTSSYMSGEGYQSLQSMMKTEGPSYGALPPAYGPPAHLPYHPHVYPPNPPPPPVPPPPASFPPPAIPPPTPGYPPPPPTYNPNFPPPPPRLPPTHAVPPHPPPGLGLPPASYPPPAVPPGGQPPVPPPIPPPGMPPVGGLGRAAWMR
# DDB1, sequence (Q16531 2-1140): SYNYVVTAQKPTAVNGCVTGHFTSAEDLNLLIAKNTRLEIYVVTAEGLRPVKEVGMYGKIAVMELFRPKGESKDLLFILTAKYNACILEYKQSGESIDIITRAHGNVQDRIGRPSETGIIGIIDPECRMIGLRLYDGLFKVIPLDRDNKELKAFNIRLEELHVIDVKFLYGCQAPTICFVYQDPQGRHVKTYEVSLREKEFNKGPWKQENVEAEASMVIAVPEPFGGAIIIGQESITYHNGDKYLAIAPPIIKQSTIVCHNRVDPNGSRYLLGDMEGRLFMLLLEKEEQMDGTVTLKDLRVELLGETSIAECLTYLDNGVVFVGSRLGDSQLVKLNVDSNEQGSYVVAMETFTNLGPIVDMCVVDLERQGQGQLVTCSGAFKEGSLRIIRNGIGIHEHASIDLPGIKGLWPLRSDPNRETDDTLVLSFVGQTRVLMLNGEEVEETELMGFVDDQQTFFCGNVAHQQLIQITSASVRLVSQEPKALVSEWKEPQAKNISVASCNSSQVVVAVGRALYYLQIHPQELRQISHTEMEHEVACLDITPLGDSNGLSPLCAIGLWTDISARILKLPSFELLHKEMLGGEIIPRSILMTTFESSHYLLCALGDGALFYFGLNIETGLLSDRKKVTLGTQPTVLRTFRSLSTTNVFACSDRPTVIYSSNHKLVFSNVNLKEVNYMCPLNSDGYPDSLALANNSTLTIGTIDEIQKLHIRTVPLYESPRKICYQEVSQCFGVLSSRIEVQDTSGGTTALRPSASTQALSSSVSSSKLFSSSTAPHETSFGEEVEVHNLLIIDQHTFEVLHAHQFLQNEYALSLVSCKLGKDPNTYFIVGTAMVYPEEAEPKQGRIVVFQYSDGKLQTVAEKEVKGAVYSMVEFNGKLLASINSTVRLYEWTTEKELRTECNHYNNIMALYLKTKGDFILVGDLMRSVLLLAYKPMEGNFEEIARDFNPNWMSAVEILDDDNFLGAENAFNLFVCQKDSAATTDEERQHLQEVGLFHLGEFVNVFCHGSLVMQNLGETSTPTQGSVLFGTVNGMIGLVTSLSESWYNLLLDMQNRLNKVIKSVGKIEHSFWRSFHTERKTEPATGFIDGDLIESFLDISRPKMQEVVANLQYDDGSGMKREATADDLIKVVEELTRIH
substance,measurement,value
DDB1 (from UniProt Q16531),Kd,50 µM
